Reference: PMC5093203 (Pharmaceutical Research, 2016)
Marks after values point to notes of the source that are not given here.

How the values were obtained:
[1] = parameters: method as in 2 sources, ref 28 = [28]; PMID 22353017; doi:10.1021/mp200470c; 28. Gokarn YR McLean M Laue TM Effect of PEGylation on protein hydrodynamics Mol Pharm 2012 9 4 762 73 10.1021/mp200470c 22353017 ||| ref 28, 34, 35 = [28]; PMID 22353017; doi:10.1021/mp200470c; 28. Gokarn YR McLean M Laue TM Effect of PEGylation on protein hydrodynamics Mol Pharm 2012 9 4 762 73 10.1021/mp200470c 22353017 || [34]; PMID 23499718; doi:10.1016/j.jconrel.2013.03.006; 34. Kaminskas LM Ascher DB McLeod VM Herold MJ Le CP Sloan EK PEGylation of interferon alpha2 improves lymphatic exposure after subcutaneous and intravenous administration and improves antitumour effi || [35]; PMID 19686787; doi:10.1016/j.jconrel.2009.08.005; 35. Kaminskas LM Kota J McLeod VM Kelly BD Karellas P Porter CJ PEGylation of polylysine dendrimers improves absorption and lymphatic targeting following SC administration in rats J Controlled Release; settings: 14.3-kDa egg white lysozyme with vs without 20-kDa PEG; cited from earlier work
[2] = Hydrodynamic size by dynamic light scattering (DLS); assay type: physicochemical; settings: 25 ± 1°C, 90° scattering angle, 633 nm, ~85 μM in 1x PBS, viscosity-corrected
Protocol: Weighed-samples of freeze-dried powder were dissolved in 1x phosphate-buffered saline (PBS) to a final concentration of ~85 μM. Concentrated protein stock solutions were diluted ~20-fold in 1 × PBS buffer to achieve a final concentration of ~85 μM. Protein concentrations (OD276 (1 mg/ml) = 1 for a 1 cm cuvette) were measured by NanoDrop (Thermo Fisher Scientific, Waltham, MA, USA). All samples were filtered through Whatman Anatop10™ low protein-binding filters (Whatman, Kent, UK) before the DLS experiments. Solution viscosity was measured by an m-VROC® (RheoSense, Inc., San Ramon, CA, USA) viscometer and light scattering data were corrected using the measured viscosity.
DLS measurements were carried out at 25 ± 1°C at a 90° scattering angle using an ALV/CGS-3 Compact Goniometer system with ALV/LSE-5003 Light Scattering Electronics and Multiple Tau Digital Correlator (ALV®-GmbH, Langen, Germany). The laser operating wavelength was 633 nm. The apparent hydrodynamic radius Rh was estimated via the Stoke-Einstein equation (Eq. 1):1 Rh=kBT/6πηD where, Rh is the apparent hydrodynamic radius (m), kB is the Boltzmann constant (kg^●m^2/s^2●K), T is the absolute temperature (K), η is the viscosity (kg/m•s), and D is the diffusion constant (m^2/s). DH is the apparent hydrodynamic diameter in nm or 2 Rhinnm . The viscosity measurement was performed with a solution concentration of 0.49 ± 0.02 mg/mL at 25°C. Viscosity mean and SD was determined from n ≥8 and reported as cP, (g/cm•s) = 10^−3 × Pa•s (kg/m•s)

[3] = LDC sheep, SC commercially formulated human insulin; cited from earlier work
[4] = parameters: species or system Sprague Dawley rats; settings: rat, in vivo, iv
Protocol: The 5/6-nephrectomized and sham male Sprague Dawley rats were obtained from Taconic Farms (Albany, NY, USA). Animals were housed two per cage in polycarbonate cages with filter tops. Animals were maintained on a 12/12 h light/dark cycle (lights on at 6:00 AM). All animals received water and LabDiet 5001 (PMI Nutrition International, Brentwood, MO, USA) ad libitum. Animals were monitored daily during the 5-week time frame that allowed progression of the disease state. Seven weeks post-surgery, blood was collected by tail clip into serum tubes for measurement of serum creatinine and blood urea nitrogen. Three days later, urine was collected for 24 h from animals housed in metabolism cages. […]
BIL concentrations in serum and lymph were determined by ELISA performed by the bioanalytical testing facility Charles River Laboratories Preclinical Services (Senneville, Quebec, Canada) as described previously for rat serum ([27]). The assay quantitation range for rat serum was 20 pM to 500 pM. […] Samples above the upper limit of quantitation were diluted and reanalyzed to gain results within the calibrated range. […]
Noncompartmental pharmacokinetic parameters for the rat study were determined using WinNonlin® professional v5.3 (Pharsight, St. Louis, MO, USA) and for the sheep study using Watson^TM (version 7.4.2 PRD872, Thermo Fisher Scientific, Inc). […] Descriptive statistics were calculated as appropriate. […]

[5] = Serum pharmacokinetics in non-LDC sheep (IV, SC); assay type: in vivo, merino sheep
Protocol: (§1) Surgery was performed under aseptic conditions.
(§2) Blood samples (3 mL) were collected into 4 mL serum collection tubes (Becton, Dickinson and Company, Scoresby, Victoria, Australia) at the following time points (hour): predose, […] (1 min, IV only), 0.083 (5 min, IV only), 0.25 (15 min, IV only), 0.5, 1, 2, 3 (SC LDC only), 4, 6, 8, 10, 12 (all IV and SC LDC), 18 (SC non-LDC only), 30 (all SC), 39 (SC non-LDC only), 48 (all SC), 54 (all SC), 72 (all SC), 96 (SC LDC only), and 120 (SC LDC only) hours postdose. The jugular cannula was flushed with heparinized saline (50 IU/mL) between samples to maintain patency. Blood samples were allowed to stand at room temperature for up to 1 h and were then centrifuged for 10 min 6000 rpm to separate serum.
(§3) Noncompartmental pharmacokinetic parameters for the rat study were determined using WinNonlin® professional v5.3 (Pharsight, St. Louis, MO, USA) and for the sheep study using Watson^TM (version 7.4.2 PRD872, Thermo Fisher Scientific, Inc). Concentrations below the lower limit of quantitation were assigned a value of zero and the zero result used in the calculation of means and standard deviation using MicroSoft® Office® Excel® 2010 (version 14.0.; Redmond, WA). Descriptive statistics were calculated as appropriate. SigmaPlot® v11 (Systsat Software, IC., San Jose, CA, USA) and Excel® were used for the graphics.

[6] = Serum pharmacokinetics in lymph duct cannulated (LDC) sheep (IV, SC); parameters: species or system merino sheep; settings: in vivo
Protocol: as §1, §2, §3

[7] = in vivo, sc
Protocol: Using a parallel group design, BIL was administered by single dose SC injection to non-LDC control sheep and to LDC sheep with a surgically placed popliteal lymph duct cannula (Table I). Blood was collected in each group, and lymph was continuously collected in the LDC sheep. BIL was also administered by bolus IV injection to a separate group of non-LDC animals for determining bioavailability and PK linearity.
Surgery was performed under aseptic conditions. Castrated male merino sheep (H.M. Barty & Sons Merino Stud, Robinvale, Victoria, Australia) weighing 31–48 kg were used. […]
In LDC sheep, lymph samples were collected in pre-weighed tubes containing 10 μL/mL of 10% EDTA at the following time points: Predose, 0–1, 1–2, 2–3, 3–4, 4–5, 5–6, 6–7, 7–8, 8–9, 9–10, 10–11, 11–12, 12–24, 24–36, 36–48, 48–60, 60–72, 72–84, 84–96 h post dose. At each time interval, the amount of lymph collected was determined gravimetrically. […]
BIL concentrations in serum and lymph were determined by ELISA performed by the bioanalytical testing facility Charles River Laboratories Preclinical Services (Senneville, Quebec, Canada) as described previously for rat serum ([27]). The assay quantitation range for rat serum was 20 pM to 500 pM. Assay quantitation range for sheep serum was from 20 pM to 500 pM. […] The quantitation range for sheep lymph was also 20 to 500 pM. […]

[8] = rat, in vivo, sc; cited from earlier work
[9] = in vivo; cited from earlier work
[10] = non-LDC sheep, SC 120 nmol, serum, mean ± SD, N = 5

For “20-kDa PEG egg white lysozyme: 14.3-kDa egg white lysozyme with addition of 20-kDa PEG”, the hydrodynamic diameter [1] is given as 9.6 nm.
In the case of egg white lysozyme, the hydrodynamic diameter [1] is given as 4.0 nm.
In the case of insulin, the “apparent hydrodynamic diameter (DH)” value [2] is given as 2.1 nm and the “% of the insulin dose recovered in the peripheral lymph” value [3] is given as 17.3%.
With insulin peglispro [BIL] the “apparent hydrodynamic diameter (DH)” value [2] was 7.6 nm, the “clearance in sham versus 5/6-nephrectomized rats (in words)” value [4] was “similar” and the AUC0-t ([5]; in vivo, iv, 20 nmol) was 0.0125667 ± 0.0018009 µM·h. The C0 ([5]; in vivo, iv, 20 nmol) was 11.133 ± 1.234 nM, the CL ([5]; in vivo, iv, 20 nmol) was 0.70 ± 0.09 mL/min/kg and the T1/2 ([5]; in vivo, iv, 20 nmol) was 1.6 ± 0.1 h. For the same substance, the Vdss ([5]; in vivo, iv, 20 nmol) was 0.05 ± 0.01 L/kg, the AUC0-t ([5]; in vivo, iv, 40 nmol) was 0.040075 ± 0.0124583 µM·h and the C0 ([5]; in vivo, iv, 40 nmol) was 27.9 ± 6.124 nM. The CL ([5]; in vivo, iv, 40 nmol) was 0.53 ± 0.21 mL/min/kg, the T1/2 ([5]; in vivo, iv, 40 nmol) was 2.8 ± 0.3 h and the Vdss ([5]; in vivo, iv, 40 nmol) was 0.04 ± 0.01 L/kg. For the same substance, the AUC0-t ([5]; in vivo, iv, 120 nmol) was 0.1116667 ± 0.0150444 µM·h, the C0 ([5]; in vivo, iv, 120 nmol) was 60.4 ± 1.039 nM and the CL ([5]; in vivo, iv, 120 nmol) was 0.47 ± 0.06 mL/min/kg. For the same substance, the T1/2 ([5]; in vivo, iv, 120 nmol) was 3.3 ± 1.2 h, the Vdss ([5]; in vivo, iv, 120 nmol) was 0.07 ± 0.04 L/kg and the “% bioavailability” value ([5]; in vivo, sc) was 123%. For the same substance, the AUC0-t ([5]; in vivo, sc, 120 nmol) was 0.14296 ± 0.0838207 µM·h, the T1/2 [5, 10] was 7.5 ± 5.1 h and the Tmax [5, 10] was 2.4 ± 0.9 h. It also gave an AUC0-t ([6]; iv, 120 nmol) of 0.1395 ± 0.0606932 µM·h, a C0 ([6]; iv, 120 nmol) of 70.175 ± 13.6001 nM and a CL ([6]; iv, 120 nmol) of 0.37 ± 0.12 mL/min/kg. For the same substance, the T1/2 ([6]; iv, 120 nmol) was 5.7 ± 2.1 h, the Vdss ([6]; iv, 120 nmol) was 0.04 ± 0.01 L/kg and the “% bioavailability” value ([6]; sc) was < 2%. The “% bioavailability” value ([6]; sc, 120 nmol) was 1.7%, the AUC0-t ([6]; sc, 120 nmol) was 0.0025945 ± 0.0025636 µM·h and the Cmax ([6]; sc, 120 nmol) was 0.4153 ± 0.384 nM. For the same substance, the T1/2 ([6]; sc, 120 nmol) was 4.6 ± 4.0^a hours, the Tmax ([6]; sc, 120 nmol) was 2.3 ± 1.0 h and the “% of dose recovered in the peripheral lymph” value [7] was 88%. For the same substance, the “% of dose excreted unchanged in urine” value [8] was 2.5% and the “PK properties in renal insufficiency (in words)” value [9] was “unaffected”.
For leptin, the “apparent hydrodynamic diameter (DH)” value [2] was 4.3 nm and the “apparent hydrodynamic diameter (DH)” value ([2]; listed as Leptin) was 4.2 nm.
